How the values were obtained:
1X3E = experiment: ELISA, antibody dilution series on the scaffold
epitope-scaffold 2ZJR_A [1] = experiment: ELISA, antibody dilution series on the scaffold
1JO8-ZM109 V1V2 scaffold [2] = experiment: ELISA, antibody dilution series on the scaffold
[3] = biological target: Env of HIV-1 strain CNE4 (pseudovirus) (HIV-1); experiment: cell-based or functional assay
[4] = biological target: Env of HIV-1 strain ZM135 (pseudovirus) (HIV-1); experiment: cell-based or functional assay
[5] = biological target: Env of HIV-1 strain T251-18 (pseudovirus) (HIV-1); experiment: cell-based or functional assay
[6] = biological target: Env of HIV-1 strain 6405 (pseudovirus) (HIV-1); experiment: cell-based or functional assay
[7] = biological target: Env of HIV-1 strain 0439 (pseudovirus) (HIV-1); experiment: cell-based or functional assay
[8] = biological target: Env of HIV-1 strain BG 1168 (pseudovirus) (HIV-1); experiment: cell-based or functional assay
[9] = biological target: Env of HIV-1 strain RHPA (pseudovirus) (HIV-1); experiment: cell-based or functional assay
[10] = biological target: Env of HIV-1 strain 3873 (pseudovirus) (HIV-1); experiment: cell-based or functional assay
[11] = biological target: Env of HIV-1 strain X2088 (pseudovirus) (HIV-1); experiment: cell-based or functional assay
[12] = biological target: Env of HIV-1 strain A03349M1 (pseudovirus) (HIV-1); experiment: cell-based or functional assay
[13] = biological target: Env of HIV-1 strain QH0515 (pseudovirus) (HIV-1); experiment: cell-based or functional assay
[14] = biological target: Env of HIV-1 strain 7165.18 (pseudovirus) (HIV-1); experiment: cell-based or functional assay
[15] = biological target: Env of HIV-1 strain QH209 (pseudovirus) (HIV-1); experiment: cell-based or functional assay
[16] = biological target: Env of HIV-1 strain 6471 (pseudovirus) (HIV-1); experiment: cell-based or functional assay
[17] = biological target: Env of HIV-1 strain CNE30 (pseudovirus) (HIV-1); experiment: cell-based or functional assay
[18] = biological target: Env of HIV-1 strain JRFL (pseudovirus) (HIV-1); experiment: cell-based or functional assay
[19] = biological target: Env of HIV-1 strain CNE56 (pseudovirus) (HIV-1); experiment: cell-based or functional assay
[20] = biological target: Env of HIV-1 strain 6322 (pseudovirus) (HIV-1); experiment: cell-based or functional assay
[21] = biological target: Env of HIV-1 strain 398 (pseudovirus) (HIV-1); experiment: cell-based or functional assay
[22] = biological target: Env of HIV-1 strain 6631 (pseudovirus) (HIV-1); experiment: cell-based or functional assay
epitope-scaffold 1VH8_C [23] = experiment: ELISA, antibody dilution series on the scaffold after large-scale expression
[24] = biological target: linked dimers of the gp120 V1/V2 domain; experiment: SPR
[25] = biological target: gp120 of HIV-1 strain 16055, full length (HIV-1); experiment: ELISA, PG9 dilution series
epitope-scaffold 1VH8_C [26] = experiment: ELISA, PG9 dilution series
epitope-scaffold 2ZJR_B = experiment: ELISA, PG9 dilution series
epitope-scaffold 2ZJR_A [27] = experiment: ELISA, PG9 dilution series
1JO8-ZM109 V1V2 scaffold [28] = experiment: ELISA, PG9 dilution series

Question: What does the source list for monoclonal antibody PG9?
Answer: EC50 (read off the curve) (1X3E): 1 µg/mL; EC50 (read off the curve) (epitope-scaffold 2ZJR_A [1]): 0.3 µg/mL; EC50 (read off the curve) (1JO8-ZM109 V1V2 scaffold [2]): 0.5 µg/mL; neutralization IC50, Env-pseudovirus, TZM-bl cells [3]: > 50 µg/mL; neutralization IC50, Env-pseudovirus, TZM-bl cells [4]: > 50 µg/mL; neutralization IC50, Env-pseudovirus, TZM-bl cells [5]: > 50 µg/mL; neutralization IC50, Env-pseudovirus, TZM-bl cells [6]: > 50 µg/mL; neutralization IC50, Env-pseudovirus, TZM-bl cells [7]: > 50 µg/mL; neutralization IC50, Env-pseudovirus, TZM-bl cells [8]: > 50 µg/mL; neutralization IC50, Env-pseudovirus, TZM-bl cells [9]: > 50 µg/mL; neutralization IC50, Env-pseudovirus, TZM-bl cells [10]: > 50 µg/mL; neutralization IC50, Env-pseudovirus, TZM-bl cells [11]: > 50 µg/mL; neutralization IC50, Env-pseudovirus, TZM-bl cells [12]: > 50 µg/mL; neutralization IC50, Env-pseudovirus, TZM-bl cells [13]: > 50 µg/mL; neutralization IC50, Env-pseudovirus, TZM-bl cells [14]: > 50 µg/mL; neutralization IC50, Env-pseudovirus, TZM-bl cells [15]: > 50 µg/mL; neutralization IC50, Env-pseudovirus, TZM-bl cells [16]: > 50 µg/mL; neutralization IC50, Env-pseudovirus, TZM-bl cells [17]: > 50 µg/mL; neutralization IC50, Env-pseudovirus, TZM-bl cells [18]: > 50 µg/mL; neutralization IC50, Env-pseudovirus, TZM-bl cells [19]: > 50 µg/mL; neutralization IC50, Env-pseudovirus, TZM-bl cells [20]: > 50 µg/mL; neutralization IC50, Env-pseudovirus, TZM-bl cells [21]: > 50 µg/mL; neutralization IC50, Env-pseudovirus, TZM-bl cells [22]: > 50 µg/mL; EC50 (read off the curve) (epitope-scaffold 1VH8_C [23]): 0.8 µg/mL; Kd [24]: < 1000 nM; EC50 (read off the curve) [25]: 0.004 µg/mL; EC50 (read off the curve) (epitope-scaffold 1VH8_C [26]): 0.03 µg/mL; EC50 (read off the curve) (epitope-scaffold 2ZJR_B): 0.01 µg/mL; EC50 (read off the curve) (epitope-scaffold 2ZJR_A [27]): 0.01 µg/mL; EC50 (read off the curve) (1JO8-ZM109 V1V2 scaffold [28]): 0.03 µg/mL
